Assay results taken from US20140235820A1, “METHODS AND COMPOSITIONS FOR MODULATING THE Wnt PATHWAY” (Genentech, Inc., priority 2010, published 2014).
Positions of bridges follow the written chain, without caps; N, C: chain ends.

Legend:
[1] = molecular target: T1, Dkk1 binding to LRP6 E1E2 (Homo sapiens, UniProt O75581); assay: Peptide inhibition of Dkk1 binding to LRP6 E1E2 (biolayer interferometry); conditions: peptide 20-fold higher than IC50; ligand three-fold higher than dissociation constant
T1 construct: construct E1E2-amino acids A20-E631 of LPR6; made in house; host or cells: Tni insect cells (baculovirus, secreted)
T1 sequence (O75581 20-631): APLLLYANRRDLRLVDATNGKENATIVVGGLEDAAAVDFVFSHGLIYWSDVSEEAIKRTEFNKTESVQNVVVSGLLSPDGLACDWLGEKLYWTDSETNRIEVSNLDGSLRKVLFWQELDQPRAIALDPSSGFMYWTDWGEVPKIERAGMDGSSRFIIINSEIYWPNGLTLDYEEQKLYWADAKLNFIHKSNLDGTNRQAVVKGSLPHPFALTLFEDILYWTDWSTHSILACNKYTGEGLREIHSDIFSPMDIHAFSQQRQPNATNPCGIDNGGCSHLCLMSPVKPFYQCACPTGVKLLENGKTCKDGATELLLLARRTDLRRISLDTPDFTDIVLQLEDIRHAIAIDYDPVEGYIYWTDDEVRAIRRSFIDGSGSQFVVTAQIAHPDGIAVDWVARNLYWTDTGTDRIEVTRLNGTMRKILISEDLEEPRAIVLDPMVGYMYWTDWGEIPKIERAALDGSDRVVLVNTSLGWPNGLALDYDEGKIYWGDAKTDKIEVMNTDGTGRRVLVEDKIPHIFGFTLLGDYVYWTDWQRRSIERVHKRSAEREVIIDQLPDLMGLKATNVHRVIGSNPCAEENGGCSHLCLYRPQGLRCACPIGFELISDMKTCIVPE
Experimental: (§1) FIG. 22. […] Binding was assessed by biolayer interferometry, as described in Example 1. Immobilized LRP6 E1E2 was exposed to protein ligand (Wnt 9b, Dkk1, or sclerostin) present in solution at a concentration three-fold higher than the measured dissociation constant for E1E2. Competing peptides were added at a saturating level (20-fold higher than the measured IC50 value). Peptide A: Ac-NSNAIKN-am; Peptide B: Ac-[…]-am (disulfide); Peptide C: Ac-[…]-am (disulfide)
(§2) Binding kinetics were measured by biolayer interferometry using an Octet Red instrument (ForteBio) as previously described (11). Streptavidin (SA) biosensors were loaded with biotinylated hLRP6 in 50 mMTris, pH 8, 300 mM NaCl, 5% (v/v) glycerol, and 0.05% (w/v) Triton X-100. The loaded biosensors were washed in the same buffer before carrying out association and dissociation measurements for the indicated times. The Kd of each interaction was determined using steady state-analysis through the Octet Red software v6.3. Each reported value represents an average of three or more experiments at different concentrations, with a fitted experimental curve for which the square of the correlation coefficient (R^2) is above 0.96.
(§3) To support the conclusions from protein mutagenesis, peptides were assayed for inhibitory activity toward binding of various ligands to LRP6. Three different peptides inhibited binding of the inhibitors Dkk1 and sclerostin to LRP6 E1E2 without affecting the binding of Wnt9B (FIG. 22).

[2] = molecular target: T2, sclerostin binding to LRP6 E1E2 (Homo sapiens, UniProt O75581); assay: Peptide inhibition of sclerostin binding to LRP6 E1E2 (biolayer interferometry); conditions: peptide 20-fold higher than IC50; ligand three-fold higher than dissociation constant
T2 construct: construct E1E2-amino acids A20-E631 of LPR6; made in house; host or cells: Tni insect cells (baculovirus, secreted)
T2 sequence (O75581 20-631): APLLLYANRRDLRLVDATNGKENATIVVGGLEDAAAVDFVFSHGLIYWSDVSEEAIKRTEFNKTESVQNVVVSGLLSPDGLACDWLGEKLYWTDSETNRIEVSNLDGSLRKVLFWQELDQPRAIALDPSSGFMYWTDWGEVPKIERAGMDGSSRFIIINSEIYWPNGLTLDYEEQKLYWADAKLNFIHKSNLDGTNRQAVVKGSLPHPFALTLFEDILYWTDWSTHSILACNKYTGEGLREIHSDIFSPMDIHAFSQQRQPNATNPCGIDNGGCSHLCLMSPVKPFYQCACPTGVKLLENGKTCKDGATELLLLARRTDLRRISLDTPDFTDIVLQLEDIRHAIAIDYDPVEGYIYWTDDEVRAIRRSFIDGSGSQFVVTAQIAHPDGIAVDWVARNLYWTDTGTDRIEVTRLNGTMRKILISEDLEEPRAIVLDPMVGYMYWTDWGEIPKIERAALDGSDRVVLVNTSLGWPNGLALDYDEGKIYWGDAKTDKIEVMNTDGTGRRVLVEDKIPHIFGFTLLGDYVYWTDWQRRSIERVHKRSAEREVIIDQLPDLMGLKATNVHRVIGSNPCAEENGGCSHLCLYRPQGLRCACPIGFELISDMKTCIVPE
Experimental: as §1, §2, §3

| inhibition of Dkk1 binding to LRP6 E1E2 [1] | inhibition of sclerostin binding to LRP6 E1E2 [2] | Substance |
| --- | --- | --- |
| inhibit binding | inhibit binding | Ac-NSNAIKN-am (Ac-NSNAIKN-NH2) [Peptide A] |
| inhibit binding | inhibit binding | Ac-CNSIKFCG-am (disulfide) (Ac-CNSIKFCG-NH2; disulfide 1-7 (inferred)) [Peptide B] |
